Experimental data: IntAct's records for PubMed 21930971

B1: Complement factor H (Homo sapiens), P08603-2 (parent)
chain: MRLLAKIICLMLWAICVAEDCNELPPRRNTEILTGSWSDQTYPEGTQAIYKCRPGYRSLGNVIMVCRKGEWVALNPLRKCQKRPCGHPGDTPFGTFTLTGGNVFEYGVKAVYTCNEGYQLLGEINYRECDTDGWTNDIPICEVVKCLPVTAPENGKIVSSAMEPDREYHFGQAVRFVCNSGYKIEGDEEMHCSDDGFWSKEKPKCVEISCKSPDVINGSPISQKIIYKENERFQYKCNMGYEYSERGDAVCTESGWRPLPSCEEKSCDNPYIPNGDYSPLRIKHRTGDEITYQCRNGFYPATRGNTAKCTSTGWIPAPRCTLKPCDYPDIKHGGLYHENMRRPYFPVAVGKYYSYYCDEHFETPSGSYWDHIHCTQDGWSPAVPCLRKCYFPYLENGYNQNYGRKFVQGKSIDVACHPGYALPKAQTTVTCMENGWSPTPRCIRVSFTL
partner: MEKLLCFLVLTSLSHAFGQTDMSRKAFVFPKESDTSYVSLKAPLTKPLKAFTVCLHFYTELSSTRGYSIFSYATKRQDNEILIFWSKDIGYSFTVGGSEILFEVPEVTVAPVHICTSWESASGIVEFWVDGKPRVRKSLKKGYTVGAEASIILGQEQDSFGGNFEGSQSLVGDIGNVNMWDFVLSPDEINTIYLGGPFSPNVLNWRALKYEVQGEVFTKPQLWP
B2: Complement factor H (Homo sapiens), P08603-1 (parent)
chain: MRLLAKIICLMLWAICVAEDCNELPPRRNTEILTGSWSDQTYPEGTQAIYKCRPGYRSLGNVIMVCRKGEWVALNPLRKCQKRPCGHPGDTPFGTFTLTGGNVFEYGVKAVYTCNEGYQLLGEINYRECDTDGWTNDIPICEVVKCLPVTAPENGKIVSSAMEPDREYHFGQAVRFVCNSGYKIEGDEEMHCSDDGFWSKEKPKCVEISCKSPDVINGSPISQKIIYKENERFQYKCNMGYEYSERGDAVCTESGWRPLPSCEEKSCDNPYIPNGDYSPLRIKHRTGDEITYQCRNGFYPATRGNTAKCTSTGWIPAPRCTLKPCDYPDIKHGGLYHENMRRPYFPVAVGKYYSYYCDEHFETPSGSYWDHIHCTQDGWSPAVPCLRKCYFPYLENGYNQNYGRKFVQGKSIDVACHPGYALPKAQTTVTCMENGWSPTPRCIRVKTCSKSSIDIENGFISESQYTYALKEKAKYQCKLGYVTADGETSGSITCGKDGWSAQPTCIKSCDIPVFMNARTKNDFTWFKLNDTLDYECHDGYESNTGSTTGSIVCGYNGWSDLPICYERECELPKIDVHLVPDRKKDQYKVGEVLKFSCKPGFTIVGPNSVQCYHFGLSPDLPICKEQVQSCGPPPELLNGNVKEKTKEEYGHSEVVEYYCNPRFLMKGPNKIQCVDGEWTTLPVCIVEESTCGDIPELEHGWAQLSSPPYYYGDSVEFNCSESFTMIGHRSITCIHGVWTQLPQCVAIDKLKKCKSSNLIILEEHLKNKKEFDHNSNIRYRCRGKEGWIHTVCINGRWDPEVNCSMAQIQLCPPPPQIPNSHNMTTTLNYRDGEKVSVLCQENYLIQEGEEITCKDGRWQSIPLCVEKIPCSQPPQIEHGTINSSRSSQESYAHGTKLSYTCEGGFRISEENETTCYMGKWSSPPQCEGLPCKSPPEISHGVVAHMSDSYQYGEEVTYKCFEGFGIDGPAIAKCLGEKWSHPPSCIKTDCLSLPSFENAIPMGEKKDVYKAGEQVTYTCATYYKMDGASNVTCINSRWTGRPTCRDTSCVNPPTVQNAYIVSRQMSKYPSGERVRYQCRSPYEMFGDEEVMCLNGNWTEPPQCKDSTGKCGPPPPIDNGDITSFPLSVYAPASSVEYQCQNLYQLEGNKRITCRNGQWSEPPKCLHPCVISREIMENYNIALRWTAKQKLYSRTGESVEFVCKRGYRLSSRSHTLRTTCWDGKLEYPTCAKR
partner: B1 partner

Variants of: B1
Settings: with crp_human CRP
Y402H was tested, and the “effect of a mutation on the interaction” value was “decreasing interaction strength”.

Variants of: B2
Settings: with crp_human CRP
For Y402H, the “effect of a mutation on the interaction” value was “decreasing interaction strength”.
